Assay results: US8183055B2, “Peptide aptamer for neutralizing the binding of platelet antigen specific antibodies and diagnostic and therapeutic applications containing the same” (Stiftung für Diagnostische Forschung, priority 2006, dated 2012)

What was measured:
anti-HPA-1a antibody [1] = experiment: Immunocapture with wells coated with Trx-HPA-1a; type: binding, human; details: wells coated with 50 or 100 ng; sera with anti-HPA-1a (1-2), anti-HPA-1b (3), negative control (4); FIG. 6
Description: The following serums were used: two samples containing anti-HPA-1a antibody (1-2), one sample containing anti-HPA-1b antibody (3), one negative control (4). Wells were coated with 50 or 100 ng of Trx-HPA-1a protein.
Immunocapture is a classical technique to detect IgG antibodies directed against platelets according to the technique published by Rachel et al. (Med Lab Sci: 1985, 42; 194-199).
Herein, Interaction between Trx-HPA-1a and human sera containing Ab against platelet HPA-1a is tested by immunocapture. A solid phase system for the detection of IgG Antibodies to platelets assay is used (Capture P®, Immucor). The pool of platelets is replaced by Trx-HPA-1a protein. Microtitration plates with conics well are coated overnight at 4° C. with 50 ng or 100 ng of Trx-HPA-1a per well in carbonate buffer (15 mM Na2CO3, 35 mM NaHCO3 in deionised water). After washing with PBS, 50 μl serum of anonymous donor is added into the wells and incubated at 37° C. for 45 min. After six washes, 50 μl of Capture-P indicating erythrocytes (red blood cell carrying anti-human IgG antibody).

Camtran antibody = experiment: Neutralisation of Camtran antibody in MAIPA assay; type: binding; details: 15 ng of Camtran in 50 μL human serum without polyclonal anti-HPA-1a; FIG. 8b
Description: Two different dates of production were use to compare stability in time, (b) the neutralisation of Camtran antibody in MAIPA assay with Trx-HPA-1a. 100 ng of Trx-HPA-1a is sufficient to inhibit Camtran in MAIPA assay and (c) the neutralisation of 2 human sera containing specific HPA-1a antibodies (anti-HPA-1a).
(§1) In this experiment, the ability of Trx-HPA-1a to neutralize the binding of human IgG HPA-1a specific polyclonal alloantibodies is determined by the MAIPA technology. The MAIPA technology is used as described by Kiefel et al. (Blood: 1987, 70; 1722-1727). The MAIPA technology is a more specific technique to detect and identify platelets' allo- and autoantibodies.
In particular, 50 μL of human serum containing or not polyclonal anti-HPA-1a or 15 ng of Camtran in 50 μL human serum without polyclonal anti-HPA-1a is incubated for 25 min at 20-25° C. with shaking incubator with 0, 1 ng, 10 ng, 100 ng or 1000 ng of Trx-HPA-1a diluted in 20 μL PBS. […] The neutralization of serum is then determined as usual using the MAIPA technique.
Increasing concentrations of Trx-HPA-1a (0, 1 ng, 10 ng, 100 ng and 1000 ng) diluted in 30 μL PBS are added to 50 μL of human serum containing or not polyclonal anti-HPA-1a or 15 ng of Camtran diluted in 50 μL human serum without polyclonal anti-HPA-1a. […] The neutralization of 50 μL of supernatant serum is then determined as usual using the MAIPA technique.

anti-HPA-1a antibody [2] = experiment: ELISA with plates coated with Trx-HPA-1a, detection of HPA-1a specific antibodies in human sera; type: binding; details: 150 ng Trx-HPA-1a per well
Description: The plates were rinsed two times with 200 μL PBS. Nonspecific binding was blocked by placing 200 μL PBS containing 1% bovine serum albumin (BSA) (A7030, Sigma) for 100 minutes at room temperature (RT). Then, the plates were rinsed one time with 200 μL PBS and again incubated for 45 min at RT on shaking incubator with human sera diluted (1:100 to 4:5) in 100 μl PBS+1% BSA. After three washes with PBS containing 0.05% Tween 20 and one washes with PBS, the plates were incubated for 40 min at RT on a shaking incubator with HRP-conjugated Goat Anti-Human IgG, Fc fragment specific (Jackson ImmunoResearch). After three washes with PBS+0.05% Tween 20 and two washes with PBS, the binding of anti-HPA-1 antibody was detected by addition of peroxidase substrate (OPD:1,2-phenylenediamine dihydrochloride) according to manufacturer's instructions (DakoCytomation). 20 min later, the reaction was stopped by adding 100 μL 0.5 M H2SO4. The absorption was registered at 492 nm with ELISA plate reader. The OD evolution at 492 nm depends on anti HPA-1a titer in the serum. […] Samples named Sch and Pan contained anti-HPA-1a antibody while sample Neg is a negative control from healthy donor. For high dilution (1/50) the OD is <0.05 for Neg. Serum whereas OD>0.23 for Sch and Pan. The situation is the same at low dilution (1/2) with the OD<0.11 for Neg. and >0.66 for Sch and Pan.
The detection of HPA-1a specific antibodies in human sera is determined by an ELISA test using microtitration plates (Nunc) coated overnight at 4° C. with 100 ng of Trx-HPA-1a per well in carbonate buffer. The plates are rinsed two times with 250 μL PBS. Nonspecific sites are blocked by a 1 h 30 min incubation at 20-25° C. with 250 μl PBS containing 1% bovine serum albumin (BSA) (A7030, Sigma). The plates are rinsed one time with 250 μL PBS and then incubated for 45 min at 20-25° C. on a shaking incubator with 10 μl of human sera diluted in 100 μl PBS 1% BSA. After three washes with PBS containing 0.05% Tween 20 and one wash with PBS, the plates are incubated for 40 min at 20-25° C. on a shaking incubator with HRP-conjugated Goat Anti-Human IgG, Fc fragment specific (Jackson ImmunoResearch). After three washes with PBS 0.05% Tween 20 and two washes with PBS, the binding of the anti-HPA-1 antibody is detected by addition of peroxidase substrate OPD (1,2-phenylenediamine dihydrochloride) (DakoCytomation) according to manufacter's instruction. Absorption is measured at 492 nm and followed during 25-30 min using ELISA plate reader. To stop reaction 100 μl 0.5 M H2SO4 is added on the well. Then the curve of evolution of absorbance according to the incubation's times of OPD is analyzed.

[3] = tested on: human IgG HPA-1a specific polyclonal alloantibodies; experiment: Neutralisation (immuno-depletion) of anti-HPA-1a alloantibodies of human serum in MAIPA assay; type: binding; design: key to neutr.: (−) negative; (+) positive; (−/+) first tested negative but positive later on
Description: as §1
In particular, 50 μL of human serum containing or not polyclonal anti-HPA-1a or 15 ng of Camtran in 50 μL human serum without polyclonal anti-HPA-1a is incubated for 25 min at 20-25° C. with shaking incubator with 0, 1 ng, 10 ng, 100 ng or 1000 ng of Trx-HPA-1a diluted in 20 μL PBS. The mixture is preincubated 5 min with 3 μl of Ni-NTA agarose beads and the complex alloantibodies/Trx-HPA-1a is pulled down by centrifugation 13000 rpm, 2 min. 50 μl of supernatant is used to perform the MAIPA. The neutralization of serum is then determined as usual using the MAIPA technique.
Increasing concentrations of Trx-HPA-1a (0, 1 ng, 10 ng, 100 ng and 1000 ng) diluted in 30 μL PBS are added to 50 μL of human serum containing or not polyclonal anti-HPA-1a or 15 ng of Camtran diluted in 50 μL human serum without polyclonal anti-HPA-1a. After incubation at 20-25° C. for 25 min, the mixture is pre-incubated with 3 μl of Ni-NTA agarose beads and the complex alloantibodies or Camtran/Trx-HPA-1a is pulled down by centrifugation at 13000 rpm for 2 min. The neutralization of 50 μL of supernatant serum is then determined as usual using the MAIPA technique.
Blood samples (Table 1, left) are from anonymous donors or from NAIT patients. MAIPA is performed on either crude serum (Table 1, “MAIPA”) or protein A-purified immunoglobulins (Table 1, “MAIPA pure”). The vast majority of donors is found negative using both MAIPA and ELISA. […] Therefore a given sample is indexed as negative using ELISA if d 20D/dt^2=0. […] Consequently, a given sample is negative with the ELISA described herein if it fulfills one of the following criteria: optical density below 0.1 (end point) or d^2OD/dt2=0 (time course). It should be pointed out that all samples found to be negative with the end point protocol, are found negative with the time course protocol as well. […] Genotyping for HPA locus is shown (Table 1, “geno.”).

B1: Trx-HPA-1a: dodecapeptide VVAGDDPREDTW (SEQ ID NO:1) fused into the active site of thioredoxin, with His-tag; protein SEQ ID NO:2 (protein, listed as Homo sapiens)
chain: MMSDKIIHLTDDSFDTDVLKADGAILVDFWAEWCGPVVAGDDPREDTWGPCKMIAPILDEIADEYQGKLTVAKLNIDQNPGTAPKYGIRGIPTLLLFKNGEVAATKVGALSKGQLKEFLDANLVDLQHHHHHH
- interaction with Trx-HPA-1a in immunocapture (anti-HPA-1a antibody [1]): only detected with serums containing the anti-HPA-1a antibody
- amount sufficient to inhibit Camtran in MAIPA assay (Camtran antibody): 100 ng
- OD at 492 nm (anti-HPA-1a antibody [2]; Neg serum (healthy donor), dilution 1/2): < 0.11
- OD at 492 nm (anti-HPA-1a antibody [2]; Neg serum (healthy donor), dilution 1/50): < 0.05
- OD at 492 nm (anti-HPA-1a antibody [2]; Sch and Pan sera (contain anti-HPA-1a), dilution 1/2): > 0.66
- OD at 492 nm (anti-HPA-1a antibody [2]; Sch and Pan sera (contain anti-HPA-1a), dilution 1/50): > 0.23
- neutr. ([3]; patient sample Ac mB2): +
- neutr. ([3]; patient sample Pan): +
- neutr. ([3]; patient sample Sch): +
- immuno-depletion of samples from NAIT patients ([3]; three samples (Pan, Sch, Ac mB2)): successfully carried out
